What follows are substances tested against human Toll-like receptor 5 (3xFlag-hTLR5) (human) (UniProt O60602).
UniProt O60602, sequence (O60602 21-858): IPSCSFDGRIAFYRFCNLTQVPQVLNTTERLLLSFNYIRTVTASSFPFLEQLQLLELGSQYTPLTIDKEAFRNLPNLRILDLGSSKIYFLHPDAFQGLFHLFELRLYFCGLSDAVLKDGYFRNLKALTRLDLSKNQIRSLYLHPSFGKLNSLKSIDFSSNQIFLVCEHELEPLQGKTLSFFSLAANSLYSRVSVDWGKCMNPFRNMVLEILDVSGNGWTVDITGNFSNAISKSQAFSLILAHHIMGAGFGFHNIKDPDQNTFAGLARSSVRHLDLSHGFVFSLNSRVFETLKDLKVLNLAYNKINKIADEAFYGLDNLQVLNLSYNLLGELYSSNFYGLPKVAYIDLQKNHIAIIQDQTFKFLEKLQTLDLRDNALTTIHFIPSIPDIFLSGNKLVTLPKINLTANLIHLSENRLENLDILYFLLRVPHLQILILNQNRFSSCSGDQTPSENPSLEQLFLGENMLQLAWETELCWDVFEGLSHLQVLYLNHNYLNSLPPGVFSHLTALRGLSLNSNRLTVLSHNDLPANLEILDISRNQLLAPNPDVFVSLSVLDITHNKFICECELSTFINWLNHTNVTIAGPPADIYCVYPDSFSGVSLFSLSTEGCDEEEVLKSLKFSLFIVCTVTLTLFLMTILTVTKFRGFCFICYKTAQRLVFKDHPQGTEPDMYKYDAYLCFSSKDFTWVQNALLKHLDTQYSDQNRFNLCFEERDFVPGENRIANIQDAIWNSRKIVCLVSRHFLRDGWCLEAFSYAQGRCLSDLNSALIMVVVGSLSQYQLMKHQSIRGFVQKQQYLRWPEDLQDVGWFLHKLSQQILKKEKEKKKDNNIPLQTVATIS

Substance | EC50 of TLR5-dependent NF-κB stimulating activity, HEK-Blue hTLR5 reporter cells [nM]
prokaryotic-expressed Vibrio vulnificus FlaB (pFlaB) (natural protein) | 3.32
eukaryotic-expressed Vibrio vulnificus FlaB (eFlaB) (natural protein) | 13.8
PNGase F-treated (deglycosylated) eFlaB (natural protein) | 3.88

Source: publication PMC10522637
